According to patent publication US20260125478A1 (VIELA BIO, published 2026):

T1: Human CD32A 131H extracellular domain, 6xHis_Flag tagged (human, UniProt P12318 34-217)
T1 construct: Used unlabelled as the analyte in Biacore; also called Hu CD32A_131His
T1 sequence: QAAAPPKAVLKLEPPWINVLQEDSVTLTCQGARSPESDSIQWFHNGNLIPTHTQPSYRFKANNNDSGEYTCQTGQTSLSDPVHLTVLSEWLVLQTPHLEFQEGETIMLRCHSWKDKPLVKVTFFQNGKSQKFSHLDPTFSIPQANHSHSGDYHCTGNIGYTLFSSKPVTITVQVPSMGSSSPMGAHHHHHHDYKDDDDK

T2: human FcγRIIA 131R on blood cells of 131R/R donors (human, UniProt P12318 34-317)
T2 sequence: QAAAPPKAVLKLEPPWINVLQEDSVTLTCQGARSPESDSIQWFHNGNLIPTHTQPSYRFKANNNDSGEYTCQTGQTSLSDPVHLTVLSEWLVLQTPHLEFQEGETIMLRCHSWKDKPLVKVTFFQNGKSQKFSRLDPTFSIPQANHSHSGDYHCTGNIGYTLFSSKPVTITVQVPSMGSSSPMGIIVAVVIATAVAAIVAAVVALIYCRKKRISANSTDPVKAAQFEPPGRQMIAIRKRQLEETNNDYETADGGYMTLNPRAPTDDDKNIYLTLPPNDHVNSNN

T3: human FcγRIIA 131H on blood cells of 131H/H donors (human, UniProt P12318 34-317)
T3 sequence (looked up): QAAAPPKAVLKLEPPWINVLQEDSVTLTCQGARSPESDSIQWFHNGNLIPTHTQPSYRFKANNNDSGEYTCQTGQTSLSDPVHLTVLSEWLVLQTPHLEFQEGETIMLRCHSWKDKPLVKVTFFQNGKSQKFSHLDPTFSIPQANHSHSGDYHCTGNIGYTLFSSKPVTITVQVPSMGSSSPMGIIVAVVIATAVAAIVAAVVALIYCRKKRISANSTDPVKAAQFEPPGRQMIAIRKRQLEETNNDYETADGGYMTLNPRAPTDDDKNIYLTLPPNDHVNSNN

T4: cynomolgus CD32A version 3, 6xHis tagged (cynomolgus monkey)
T4 construct: also called Cyno CD32A; cyno CD32A (version 3)
T4 chain: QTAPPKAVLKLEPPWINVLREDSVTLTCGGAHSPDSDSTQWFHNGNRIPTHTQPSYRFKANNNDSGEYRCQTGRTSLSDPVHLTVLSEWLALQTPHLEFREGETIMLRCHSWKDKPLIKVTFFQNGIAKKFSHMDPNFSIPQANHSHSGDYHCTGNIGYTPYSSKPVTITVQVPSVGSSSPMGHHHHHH

T5: Human CD32A 131R extracellular domain, 6xHis_Flag tagged (human, UniProt P12318 34-217)
T5 construct: also called Hu CD32A_131Arg; human CD32A_131 Arg
T5 chain: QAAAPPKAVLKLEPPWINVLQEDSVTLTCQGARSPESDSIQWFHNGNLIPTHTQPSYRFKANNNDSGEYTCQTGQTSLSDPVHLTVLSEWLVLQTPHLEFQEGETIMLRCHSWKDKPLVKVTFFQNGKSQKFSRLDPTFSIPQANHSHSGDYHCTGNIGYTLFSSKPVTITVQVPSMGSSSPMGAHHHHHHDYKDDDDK


Key:
[1] = biological target: T1, Human CD32A 131H extracellular domain, …; assay: HTRF epitope competition; competitor IV.3 IgG on biotinylated human CD32A 131H
[2] = biological target: T2, human FcγRIIA 131R on blood cells of …; assay: cell-based or functional assay
[3] = biological target: T3, human FcγRIIA 131H on blood cells of …; assay: cell-based or functional assay
[4] = biological target: T3, human FcγRIIA 131H on blood cells of …; assay: cell-based or functional assay; remark: listed apart in the source
[5] = biological target: T2, human FcγRIIA 131R on blood cells of …; assay: cell-based or functional assay; remark: listed apart in the source
[6] = biological target: cynomolgus monkey FcγRIIA on blood cells (cynomolgus monkey); assay: cell-based or functional assay
[7] = biological target: T1, Human CD32A 131H extracellular domain, …; assay: Biacore; IgG1-TM captured on a Protein G chip, CD32A as analyte, 1:1 Langmuir fit, average of two experiments
[8] = biological target: T4, cynomolgus CD32A version 3, 6xHis tagged; assay: as above
[9] = biological target: T5, Human CD32A 131R extracellular domain, …; assay: as above
[10] = biological target: T1, Human CD32A 131H extracellular domain, …; assay: HTRF epitope competition: sample IgG titrated against binding of mouse IV.3 IgG to biotinylated human CD32A 131H
Method: Subsequently, a potential […] site was removed in VL CDR1 (N28L) to reduce the risk of chemical modification during manufacture.
5 μl is added to the assay plate (384 black, shallow well, Costar, 3676), to give a final concentration of 2.0 nM. […] 5 μl of each IgG sample is transferred to the assay plate using a MiniTrak™ (Perkin Elmer). […] Assay plates were incubated for 3 hours at room temperature prior to reading time resolved fluorescence at 620 nm and 665 nm emission wavelengths using an EnVision plate reader (Perkin Elmer).

| fold loss of potency in the IV.3 epitope competition assay (the next sentence compares with the mouse IgG) [1] | IC50 of the loss of surface FcγRIIA (M.F.I of IV.3-Alexa 647) on monocytes, whole blood, 2 h at 37 °C [2] | IC50 of the loss of surface FcγRIIA (M.F.I of IV.3-Alexa 647) on monocytes, whole blood, 2 h at 37 °C [3] | EC50 of FcγRIIA internalization from the monocyte surface (whole blood FACS assay) [4] | EC50 of FcγRIIA internalization from the monocyte surface (whole blood FACS assay) [5] | IC50 of the loss of surface FcγRIIA (M.F.I of IV.3-Alexa 647) on cynomolgus monocytes, whole blood, 2 h at 37 °C [6] | Kd [7] | koff [7] | kon [7] | Kd [8] | koff [8] | kon [8] | Kd [9] | koff [9] | kon [9] | IC50 (read off the curve) [10] | Binder |
| --- | --- | --- | --- | --- | --- | --- | --- | --- | --- | --- | --- | --- | --- | --- | --- | --- |
| 10 fold | – | – | – | – | – | – | – | – | – | – | – | – | – | – | – | fully humanized IV.3 IgG1 (VH and VL fully humanized, before Y36F and N28L) (antibody) chain 1: QVQLVQSGAEVKKPGASVKVSCKASGYTFTNYGMNWVRQAPGQRLEWMGWLNTYTGESIYPDDFKGRVTITRDTSASTAYMELSSLRSEDTAVYYCARGDYGYDDPLDYWGQGTLVTVSS chain 2: DIVMTQSPLSLPVTPGEPASISCRSSKSLLHTNGNTYLHWYLQKPGQSPQLLIYRMSVLASGVPDRFSGSGSGTDFTLKISRVEAEDVGVYYCMQHLEYPLTFGQGTKLEIK |
| – | 0.198 nM | 0.191 nM | 0.19 nM | 0.2 nM | 7.82 nM | 0.22 nM | 0.000681 s⁻¹ | 3.03e+06 M⁻¹ s⁻¹ | 44.1 nM | 0.204 s⁻¹ | 4.63e+06 M⁻¹ s⁻¹ | 0.22 nM | 0.00129 s⁻¹ | 5.95e+06 M⁻¹ s⁻¹ | ~2 nM | chimeric IV.3 (human IgG1-TM) (antibody, V domains shown, also called parent IV.3 chimeric Ab; chimeric IV.3 antibody) VH: QIQLVQSGPELKKPGETVKISCKASGYTFTNYGMNWVKQAPGKGLKWMGWLNTYTGESIYPDDFKGRFAFSSETSASTAYLQINNLKNEDMATYFCARGDYGYDDPLDYWGQGTSVTVSS VL: DIVMTQAAPSVPVTPGESVSISCRSSKSLLHTNGNTYLHWFLQRPGQSPQLLIYRMSVLASGVPDRFSGSGSGTAFTLSISRVEAEDVGVFYCMQHLEYPLTFGAGTKLELK |
